Assay results from paper PMC13188885, “Zero-valent sulfur is the product of assimilatory sulfite reductase and a substrate of cysteine synthase” (Applied and Environmental Microbiology, 2026).

What was measured:
Experiment in all cases: mBBr-HPLC of cysteine released by TCEP; Michaelis-Menten fit
Conditions in all cases: O-acetyl-L-serine co-substrate 1.0-2.0 mM, 100 µM PLP, pH 7.4, 30 °C
[1] = substrate: N[C@@H](CCC(=O)N[C@@H](CSS)C(=O)NCC(=O)O)C(=O)O; assay type: biochemical, Saccharolobus islandicus
Source text: (§1) mBBr-HPLC of cysteine released by TCEP; Michaelis-Menten fit on SiRe_1641 | We then assayed the kinetics of all five cysteine synthases

[2] = substrate: O=S(O)(O)=S; assay type: biochemical, Saccharolobus islandicus
Source text: as §1

[3] = substrate: N[C@@H](CCC(=O)N[C@@H](CSS)C(=O)NCC(=O)O)C(=O)O; assay type: biochemical, Escherichia coli
Source text: (§2) mBBr-HPLC of cysteine released by TCEP; Michaelis-Menten fit on EcCysK | We then assayed the kinetics of all five cysteine synthases

[4] = substrate: O=S(O)(O)=S; assay type: biochemical, Escherichia coli
Source text: as §2

[5] = substrate: N[C@@H](CCC(=O)N[C@@H](CSS)C(=O)NCC(=O)O)C(=O)O; assay type: biochemical, Escherichia coli; remark: listed apart in the source
Source text: (§3) mBBr-HPLC of cysteine released by TCEP; Michaelis-Menten fit on EcCysM | We then assayed the kinetics of all five cysteine synthases

[6] = substrate: O=S(O)(O)=S; assay type: biochemical, Escherichia coli; remark: listed apart in the source
Source text: as §3

B1: SiRe_1641 (Saccharolobus islandicus REY15A) (protein)
chain: MSNPLHVFSNEQELLEGMWPTPLLKLRIGNDTWAKLEFYNPFSRSVKDRTAWFLFRQALIKNVNHIVEATSGNTGIALASLSSIYGMQFTMFLPVVAPKVYKVLVKLLGGNVIEAGNSTNDVIPLVKRFAEMSNAVNLDQFNNPINVIAHYETTAREIDEQLTSIGKRPSRIIATMGTGGHIAGVAKYFKEKYGNDVEIVGVQPSENSRIPGIKRQNGSNSLLRDIKIDRVVDVSLEEAIDGTISVARTSGILIGISAGATVAAYKRINDVSSTTVLIFPDDAFKYVDILEQTLKEI
notes: N-terminal His-tag, expressed in E. coli BL21(DE3), Ni-NTA
With B1 the Km [1] was 279 ± 32 µM, the Vmax [1] was 0.174 µM/min/mg and the kcat [1] was 4.92 ± 1.27 s⁻¹. For the same protein, the Km [2] was 1126 ± 162 µM, the Vmax [2] was 0.065 µM/min/mg and the kcat [2] was 1.52 ± 0.511 s⁻¹.

B2: EcCysK (Escherichia coli K-12) (protein)
chain: MSKIFEDNSLTIGHTPLVRLNRIGNGRILAKVESRNPSFSVKCRIGANMIWDAEKRGVLKPGVELVEPTSGNTGIALAYVAAARGYKLTLTMPETMSIERRKLLKALGANLVLTEGAKGMKGAIQKAEEIVASNPEKYLLLQQFSNPANPEIHEKTTGPEIWEDTDGQVDVFIAGVGTGGTLTGVSRYIKGTKGKTDLISVAVEPTDSPVIAQALAGEEIKPGPHKIQGIGAGFIPANLDLKLVDKVIGITNEEAISTARRLMEEEGILAGISSGAAVAAALKLQEDESFTNKNIVVILPSSGERYLSTALFADLFTEKELQQ
notes: as for B1
Work on B2 yielded a Km [3] of 265 ± 37 µM, a Vmax [3] of 0.163 µM/min/mg and a kcat [3] of 9.78 ± 0.665 s⁻¹. It also gave a Km [4] of 1036 ± 82 µM, a Vmax [4] of 0.074 µM/min/mg and a kcat [4] of 2.45 ± 0.935 s⁻¹.

B3: EcCysM (Escherichia coli K-12) (protein)
chain: MSTLEQTIGNTPLVKLQRMGPDNGSEVWLKLEGNNPAGSVKDRAALSMIVEAEKRGEIKPGDVLIEATSGNTGIALAMIAALKGYRMKLLMPDNMSQERRAAMRAYGAELILVTKEQGMEGARDLALEMANRGEGKLLDQFNNPDNPYAHYTTTGPEIWQQTGGRITHFVSSMGTTGTITGVSRFMREQSKPVTIVGLQPEEGSSIPGIRRWPTEYLPGIFNASLVDEVLDIHQRDAENTMRELAVREGIFCGVSSGGAVAGALRVAKANPDAVVVAIICDRGDRYLSTGVFGEEHFSQGAGI
notes: as for B1
B3 showed a Km [5] of 325 ± 33 µM, a Vmax [5] of 0.155 µM/min/mg and a kcat [5] of 5.16 ± 1.55 s⁻¹. The kcat/Km [5] was 14700 M⁻¹ s⁻¹, the Km [6] was 408 ± 28 µM and the Vmax [6] was 0.173 µM/min/mg. The kcat [6] was 5.81 ± 0.92 s⁻¹ and the kcat/Km [6] was 12600 M⁻¹ s⁻¹.
